Data: doi:10.1101/2024.08.29.610253, “Liprin-α/RIM complex regulates the dynamic assembly of presynaptic active zones via liquid-liquid phase separation” (bioRxiv, 2024)

Target: the molecule itself
Test: SEC-MALS; Superdex 200 Increase 10/300 GL in TBS (20 mM Tris pH 8.0, 100 mM NaCl, 1 mM EDTA, 1 mM DTT); individual proteins or mixture, up to 500 μM

B1: liprin-α2_CC2 (domain or fragment, human, UniProt O75334 259-542, looked up)
chain: GSIDSTDETSQIVELQELLEKQNYEMAQMKERLAALSSRVGEVEQEAETARKDLIKTEEMNTKYQRDIREAMAQKEDMEERITTLEKRYLSAQRESTSIHDMNDKLENELANKEAILRQMEEKNRQLQERLELAEQKLQQTMRKAETLPEVEAELAQRIAALTKAEERHGNIEERMRHLEGQLEEKNQELQRARQREKMNEEHNKRLSDTVDRLLTESNERLQLHLKERMAALEEKNVLIQESETFRKNLEESLHDKERLAEEIEKLRSELDQLKMRTGSLIEP
notes: liprin-α2, human, GenBank AF034799.1, CC2 region, residues 259-542; Dimeric by SEC-MALS at 500 μM; source: E. coli BL21(DE3), purified (Ni-NTA, SEC)
stoichiometry N: 2
